From article PMC3336104 (Molecular Cell, 2012)

Target: Glmn, purified, His6-MBP removed (human, UniProt Q92990 1-594)
Assay: SEC

Chain of Glmn, purified, His6-MBP removed (Q92990 whole entry): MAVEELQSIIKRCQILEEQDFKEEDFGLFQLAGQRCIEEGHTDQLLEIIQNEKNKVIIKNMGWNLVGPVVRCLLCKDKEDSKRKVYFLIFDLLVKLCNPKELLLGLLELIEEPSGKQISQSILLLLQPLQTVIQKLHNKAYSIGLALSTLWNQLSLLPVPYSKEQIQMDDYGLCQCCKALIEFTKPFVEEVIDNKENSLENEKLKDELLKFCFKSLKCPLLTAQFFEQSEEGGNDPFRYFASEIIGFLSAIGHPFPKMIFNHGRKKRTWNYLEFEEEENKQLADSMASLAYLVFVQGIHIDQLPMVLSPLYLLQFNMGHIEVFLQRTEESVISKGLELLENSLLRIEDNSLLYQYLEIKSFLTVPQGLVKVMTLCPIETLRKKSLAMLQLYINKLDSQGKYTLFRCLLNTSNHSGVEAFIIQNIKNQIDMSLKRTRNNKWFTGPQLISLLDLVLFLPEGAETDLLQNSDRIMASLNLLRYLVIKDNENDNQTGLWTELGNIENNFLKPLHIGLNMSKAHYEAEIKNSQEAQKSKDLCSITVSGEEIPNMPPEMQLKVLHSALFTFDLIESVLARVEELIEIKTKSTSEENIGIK

binding result: binds
B1: Rbx1^RING, GST removed (domain or fragment)
chain: not shown
